Laboratory results as given in patent US20210246195A1 (CZ BIOHUB SF, published 2021).
Positions count from the first letter of the chain named. Read-outs that look alike come from different tables or passages of the source. Each block holds one binder with its values, some of them ahead of it.

Legend:
[1] = biological target: T1, BSA (UniProt P02769 25-607); test: indirect ELISA heat map, hIgG subtracted
T1 construct: also called bovine serum albumin; immobilized BSA

[2] = biological target: T1, BSA; test: indirect ELISA heat map, hIgG subtracted; remark: listed apart in the source

T1 sequence (P02769 25-607 limits assumed): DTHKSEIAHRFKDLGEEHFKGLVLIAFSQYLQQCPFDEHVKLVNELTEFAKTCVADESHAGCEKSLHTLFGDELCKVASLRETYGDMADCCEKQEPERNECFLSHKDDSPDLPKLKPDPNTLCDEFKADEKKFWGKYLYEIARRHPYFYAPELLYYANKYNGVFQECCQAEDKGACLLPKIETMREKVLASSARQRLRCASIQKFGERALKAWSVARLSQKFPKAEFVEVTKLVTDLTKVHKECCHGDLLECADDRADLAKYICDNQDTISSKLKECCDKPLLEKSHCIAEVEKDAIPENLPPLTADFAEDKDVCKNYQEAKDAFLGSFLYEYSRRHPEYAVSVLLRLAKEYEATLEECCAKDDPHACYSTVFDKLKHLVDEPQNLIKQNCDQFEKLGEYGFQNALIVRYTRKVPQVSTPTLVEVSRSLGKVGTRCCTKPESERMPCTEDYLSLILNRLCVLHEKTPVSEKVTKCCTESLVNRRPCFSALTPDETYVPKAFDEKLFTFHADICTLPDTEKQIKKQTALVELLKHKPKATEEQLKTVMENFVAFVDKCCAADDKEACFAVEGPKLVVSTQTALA

binding result [1]: no binding (tested: 2 ng/µL)
B1: PA01P2A12 (antibody, V domains shown)
VH: QVQLVQSGAEVKKPGASVMLSCKASGYIFTNSDINWVRQAPGQGPEWMGWMNPKSGNTGYEQKFQGRVTMTTNTSISTAYMELSRLRSEDTAVYYCARSTGAVAGNFDYWGQGTPVTVSS
VL: EIVMTQSPATLSVSLGDRATLSCRASQSISRNLAWYQQKPGQAPRLLIYGASIRITDIPARFSGSGSGTEFTLTISSLQSEDFAIYFCQQYNNWRTFGQGTRVELK
notes: subject PA01; also called Clone PA01P2A12

binding result [2]: no binding (tested: 2 ng/µL)
B2: PA12P3E04 (antibody, human IgG1, V domains shown)
VH: EVKVVESGGGLVQPGGSLRLSCAASEFTFTYYWMSWIRQAPGKGLEWVANVNGDATEKYYVDSVKGRFTISRDNPKKTVYLQMNSLRVEDTAVYYCARVGTTVVNDGFDLWGLGTMVTVSS
VL: SYVLTQSHSVSVAPGQTARITCGGENIGGKGVHWYQQKPGQAPLLVVSSDTGRRSVTPDRFSGSNSGDTATLIISRVEAGDEADYYCQVWDPTSEYVFGSGTKVTVL
notes: human IgG1

binding result [2]: no binding (tested: 2 ng/µL)
B3: PA11P1G04 (antibody, human IgG1, V domains shown)
VH: EVQLVESGGGLVQPGGSLRLSCAASGFTFSSYWMSWVRQAPGKGLEWVANIKQDGSEKDYVDSVKGRFTISRDNAKNSLYLQLNSLRAEDTAVYYCARERSTQSSSWYVSSYYSYYGMDVWGQGTTVTVSS
VL: SSELTQDPAVSVALGQTVTITCQGDSLRSFYASWYQQKPGQAPVFVIYGKYNRPSGIPDRFSGSSSGNTASLTITGAQAEDEADYYCNSRDSSDNHLGVFGGGTKLTVL
notes: human IgG1

binding result [2]: no binding (tested: 2 ng/µL)
B4: PA12P1D02 (antibody, human IgG1, V domains shown)
VH: QLQLQQWGAGLVKPSETLSLTCTVSGGSLSGHFWSWIRQSPEKGLEWIGEINHSGRKNYNPSLMIRVDISIDTSKNQFSMRMTSLTAADSAVYYCARVGRNIVDTDDAFDVWGRGTLVTVSS
VL: EIVLTQSPGTLSLSPGDTVTLSCRASQTIDSIYLAWYQQRPGQAPRLLIYGASTRATGTPDRFSGGGSGTDFTLTITRLEPEDFAVYFCQQYGTSPPITFGRGTRLEIK
notes: human IgG1

binding result [1]: no binding (tested: 2 ng/µL)
B5: PA01P2C05 (antibody, V domains shown)
VH: QLLLQESGPGLVKPSETLSLSCTVSAGSITSINYSWGWIRQPPGKGLEWIASVYFSGSIYYNPSLKSRVAISVDTSKNTFSLNLTSVTAADTAVYYCARLRLDTGRDSSGLSYREHFDYWAQGTLVTVSS
VL: DIQMTQSPSTLSASVGDRVTITCRASQSIGMWLAWFQQKPGKAPKLLIYKASTLESGVPSRFSGSGSGTEFTLTINSLQPDDFATYYCQQYNSYLFTFGPGTKVDIK
notes: subject PA01; also called Clone PA01P2C05

binding result [2]: no binding (tested: 2 ng/µL)
B6: PA11P1E01 (antibody, human IgG1, V domains shown)
VH: QVQLVQSGSELRRPGASVKVSCKTSGYAFTHFAMNWLRQAPGQGLEWLGWINTHSGNPTYAQGFTGRIVFSLDTSAGTAYLEISSLKAEDTAVYYCARERYFDFWGQGTLVAVSS
VL: QSVLTQPPSASGTPGQRVTISCSGTNSNIGKNFLYWYQQLPGTAPKLLIFSSNQRPSGVPDRFSGSKSGTSASLAISGLRSEDEADYYCAAWDDNLSGWVFGGGTKVTVL
notes: human IgG1

binding result [2]: no binding (tested: 2 ng/µL)
B7: PA11P1C11 (antibody, human IgG1, V domains shown)
VH: B6 VH with R13K, V20L, K23R, A28T, T30I, I68F, T74V, S85G, T109A
VL: B6 VL with N26S, L40V, F50Y, N95S
notes: human IgG1

binding result [2]: no binding (tested: 2 ng/µL)
B8: PA12P3C01 (antibody, human IgG1, V domains shown)
VH: QVQLVQSGAEVKKPGASVKVSCQASGYTFTRYDINWVRQATGQGLEWMGWLNPKSGDTGYAQKFQGRVTMTRDTSISTAYMELTSLTSDDTAVYYCARGVDANHWGQGSLVTVSS
VL: DIVVTQSPDSLAVSLGERATINCKSSQSIFDTSSNKNYLAWFRQRPGQPPQLLIYWASTRESGVPDRFSGSGSGTDFTLTISSLQAEDVAVYYCHQYYSLPHAFGQGTKLEIK
notes: human IgG1

binding result [2]: no binding (tested: 2 ng/µL)
B9: PA12P3E09 (antibody, human IgG1, V domains shown)
VH: QVQLVQSGAEVKKPGSSVKVSCKASGGTFSSYSISWVRQAPGQGLEWMGGIIPIFGSGSYAQKFQGRVTITADKSTSTAYMELSSLSSDDTAVYYCARGESPSNFVYYGMDVWGQGTTVTVSS
VL: DIVLTQSPLSLPVTPGEPASISCRSSHSLLHSNGYNHLDWYLQKPGQSPQLLIYLGSNRASGVPDRFSGSGSGTDFTLKISRVEAEDVGVYYCMQALLVTFGPGTKVDIK
notes: human IgG1

binding result [2]: no binding (tested: 2 ng/µL)
B10: PA14P1D11 (antibody, human IgG1, V domains shown)
VH: EVQLLESGGGLVQPGGSLKLSCVASGFTFSSYAMMWVRQAPGKGLEWISSISSSGGSTYYADSVKGRFTISRDNSKNTLYLQMNSLRVEDTAVYYCAKSHCSTTSCPRAFYYYGMDVWGQGTTVTVSS
VL: DIQMTQSPSSLSASVGDRVTITCRASQTITTYLNWYQQKPGKAPKLLIYAASSLQSGVPSRFSGSGSGTDFTLSLSSLQPEDSATYYCQQSYSTLGAFGGGTKVEIK
notes: subject PA14; also called Clone PA14P1D11

binding result [2]: no binding (tested: 2 ng/µL)
B11: PA11P1C04 (antibody, human IgG1, V domains shown)
VH: QVQLQESGPGLVKPSETLSLTCTVSGGSISSYYWNWIRQPPGKGLEWIGYIYYSGSTNYNPSLKSRATISVDTSKNQFSLKLSSVTAADTAVYYCARANLFGVALRRVLGPFDYWGQGTLVTVSS
VL: DIQMTQSPSSLSASVGDRVTIACRASQSIANYLNWYQQKPGKAPKLLIYAASNLQSGVPSRFSGSGSGTDFTLTISSLQPEDFATYYCQQSYSTPYTFGQGTKLEIK
notes: human IgG1

binding result [2]: no binding (tested: 2 ng/µL)
B12: PA14P3H08 (antibody, human IgG1, V domains shown)
VH: QVQLVESGGGVVQPGRSLTLSCAASGFNFKTYGMHWVRQAPGKGLEWVAVIYHDGNDKFYADSVKGRFTISRDNSKNTLYVQMSSLRADDTAIYYCAKGIFSSGYHYGMDVWGQGTAVIVSS
VL: DIQMTQSPSSLSASLGDSVTITCLASQGIKEFLSWFQQKPGQAPKLLIYDASSSHSGVPSRFSGSGSATHFTLTISSLQPDDIATYYCQQYHQVPLTFGQGTRLEIK
notes: human IgG1

binding result [1]: no binding (tested: 2 ng/µL)
B13: PA01P2E06 (antibody, V domains shown)
VH: HVQLVQSGADVKKPGSSVKVSCKFSGGTFNNDSINWVRQAPGQGLEWMGVIMPFFGATRFAPKFQGRVTLTADKFTSTGYMELGSLKSDDTAVYYCARDKPPDDKWADYGMDVWGQGTTVTVSS
VL: SYELTQPPSVSVSPGQTARITCSGDALPKQYVYWYQQKTGQAPVLVIYKDTERPSGIPERFSGSTSGTTVTLTISGVQADDEADYFCQSADRNANYRVFGGGTKLTVL
notes: subject PA01; also called Clone PA01P2E06

binding result [2]: no binding (tested: 2 ng/µL)
B14: PA11P1G10 (antibody, human IgG1, V domains shown)
VH: QVQLQESGPGLVKPSQTLSLTCTVSGGSINTGAYYWSWIRQHPGKGLEWIGYIYYSGSTYYNPSLKSRVTISKDTSKNQFSLRLTSVTAADTAVYYCVREKLTGAPDNWGQGTLVAVSS
VL: DIQMTQSPSSLSASVGDRVTITCRASQGVSNYLAWFHQKPGKAPKSLIYAASTLHDGVPSSFSGSGSGTEFTLTISDLQPEHFGTYYCEQYNSYPFTFGPGTTVDFK
notes: human IgG1

binding result [2]: no binding (tested: 2 ng/µL)
B15: PA12P4D02 (antibody, human IgG1, V domains shown)
VH: QVQLVESGGGVVQPGRSLRLSCAASGFTFSSYAMHWVRQAPGKGREWVAALSYDGSSTYYADSVKGRLTISRDNSKNTLYLQMNSLRAEDTAVYFCTRVPYGEGRAANDYWGQGTLVTVSS
VL: DIQMTQSPSTLSASVGDRVTITCRASQSIGSWLAWYQQKPGKAPKLLIYKASNIESGVPSRFSGSGSGTEFTLTISSLQPDDFATYYCQHYNTYSRSFGGGTEVAIK
notes: human IgG1

binding result [2]: no binding (tested: 2 ng/µL)
B16: PA12P3E11 (antibody, human IgG1, V domains shown)
VH: QVQLVESGGGLVTPGGSLRLSCTVSGFTLSDYYMSWIRQAPGKGLDWLSYISGSGDNKNYADSVRGRFTISRDNSKNSLYLQMNSLRAEDTAVYYCAREFPSGGYSPGVVLWGQGTLVTVSS
VL: NFVLTQPHSVSESPGKTVTISCARSSGSIAGSFVQWYQQRPGSSPTTVIYEDTRRPSGVPDRFSGSIDSSSNSASLTISGLKTEDEADYYCQSYDSTNPWVFGGGTKLTVL
notes: human IgG1

binding result [2]: no binding (tested: 2 ng/µL)
B17: PA11P1D11 (antibody, human IgG1, V domains shown)
VH: QVELVESGGGVVQPGRSLRLSCVASGFTFSDYGMHWVRQAPGKGLEWVAVIWFDGSSKYYADSVKGRFTISRDDSKNTVFMQMNNVRVEDTAVYYCAREQWLGTEYFQNWGQGTLVTVSS
VL: EIVMTQSPATLSLFPGERATLSCRASQSVAGNLAWYQQKPGQAPRLLIYEASTRATDIPARFSGSGSETEFTLTISSLQSEDFAVYYCQQYKKWLITFGQGTRLEIK
notes: human IgG1

binding result [2]: no binding (tested: 2 ng/µL)
B18: PA11P1C03 (antibody, human IgG1, V domains shown)
VH: EVQLVQSGGGLVKPGGSLRLSCAASGSTLTNYNINWVRQAPGKGLQWVSSISGTRDYTYYADSVVGRFTISRDNAKNSVYLQMNSLRAEDTAVYYCARGREVGGDYDSYDWGQGTLVTVSS
VL: DIQMTQSPSSLSASVGDRVTITCQASQDISTFLHWYQQKPGKAPSVLIYGASDLKTGVPSRFSGSGSGTHFTLTISSLQPEDIATYYCQQYDHLPLTFGGGTKVEIK
notes: human IgG1

binding result [2]: no binding (tested: 2 ng/µL)
B19: PA12P1G11 (antibody, human IgG1, V domains shown)
VH: QVQLVQSGAEVRKPGSSVKVSCKASGGTFSNNPITWVRQAPGQGLEWMGWIIPIFNTTNYAQKFQGRVTITADESTSTAYMELSSLKSEDTALFYCARDRAHAYCNNGVCYTTDAFDVWGQGTLVTVSS
VL: ETVLTQSPATLSLSPGERATLSCRASQSVGRYLAWYQHKPGQAPRLLIYDASNRATGIPARFSGSGSGTDFTLTISSLEPEDSAVYYCQQGTDWLTFGGGTKVEIK
notes: human IgG1

binding result [2]: no binding (tested: 2 ng/µL)
B20: PA11P1F03 (antibody, human IgG1, V domains shown)
VH: QVQLQQWGAGLLKPSETLSLNCTVYHGSLSTSYWSWIRQPPGRGLEWIGEINDSGATNYNPSLKSRVIISVDTSKDQFSLKLTSVTAADTAMYYCARAPLLWVGESFFYYFDSWGQGILVTVSS
VL: DIQMTQSPSSLSASVGDRVSITCRAGQSIDTYLNWYQHKPGKAPDLLIYTTSTLHSGVPSRFSGSGSGTDFTLTITSLQPEDFAIYYCQQSYKSPYTFGQGTKVEIK
notes: human IgG1

binding result [2]: no binding (tested: 2 ng/µL)
B21: PA11P1D12 (antibody, human IgG1, V domains shown)
VH: QVQLRVSGPGLVNPSETLSLTCIVSGDSLRDYYWSWIRQSPGKGLEWIGYVTESGGAHYNPSLESRVTISVDASKTQFSLNLKSVTAADTAVYYCARDAYSSTWYTVGWFDPWGPGSLVTVSS
VL: EIVLTQSPATLSLSPGERATLSCRASQDVGVYLAWYQQKPGQAPRLIIYDASDRVSGVPARFTGSGSGTDFTLTITSLEPEDFAVYFCQQRTSGLTFGGGTTLEIK
notes: human IgG1
